Measurements taken from patent US20250333515A1.

Biological target: biotinylated recombinant human CLL-1 extracellular domain protein, isoform with lysine at amino acid position 244 (human) (UniProt Q5QGZ9)
Assay: Exp 1 (= Octet, CLL-1-K244 of FIG. 12B); Exp 2: ND

Chain of biotinylated recombinant human CLL-1 extracellular domain protein, isoform with lysine at amino acid position 244 (human) (Q5QGZ9 65-265): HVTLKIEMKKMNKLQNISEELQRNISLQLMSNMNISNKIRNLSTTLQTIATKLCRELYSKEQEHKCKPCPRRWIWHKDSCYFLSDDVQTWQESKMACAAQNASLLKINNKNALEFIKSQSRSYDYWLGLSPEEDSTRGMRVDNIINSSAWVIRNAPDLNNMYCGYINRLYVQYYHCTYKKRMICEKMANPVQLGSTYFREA

- Kd: 0.127 nM
Substance: + Control
